Results reported in PMC3812353.

How the values were obtained:
[1] = target: T1, MutS-IAANS (MutS-C42A/M88C) (Thermus aquaticus (printed as T. …, UniProt Q56215 1-811, C42A;M88C)); assay: IAANS fluorescence quenching, equilibrium
T1 sequence: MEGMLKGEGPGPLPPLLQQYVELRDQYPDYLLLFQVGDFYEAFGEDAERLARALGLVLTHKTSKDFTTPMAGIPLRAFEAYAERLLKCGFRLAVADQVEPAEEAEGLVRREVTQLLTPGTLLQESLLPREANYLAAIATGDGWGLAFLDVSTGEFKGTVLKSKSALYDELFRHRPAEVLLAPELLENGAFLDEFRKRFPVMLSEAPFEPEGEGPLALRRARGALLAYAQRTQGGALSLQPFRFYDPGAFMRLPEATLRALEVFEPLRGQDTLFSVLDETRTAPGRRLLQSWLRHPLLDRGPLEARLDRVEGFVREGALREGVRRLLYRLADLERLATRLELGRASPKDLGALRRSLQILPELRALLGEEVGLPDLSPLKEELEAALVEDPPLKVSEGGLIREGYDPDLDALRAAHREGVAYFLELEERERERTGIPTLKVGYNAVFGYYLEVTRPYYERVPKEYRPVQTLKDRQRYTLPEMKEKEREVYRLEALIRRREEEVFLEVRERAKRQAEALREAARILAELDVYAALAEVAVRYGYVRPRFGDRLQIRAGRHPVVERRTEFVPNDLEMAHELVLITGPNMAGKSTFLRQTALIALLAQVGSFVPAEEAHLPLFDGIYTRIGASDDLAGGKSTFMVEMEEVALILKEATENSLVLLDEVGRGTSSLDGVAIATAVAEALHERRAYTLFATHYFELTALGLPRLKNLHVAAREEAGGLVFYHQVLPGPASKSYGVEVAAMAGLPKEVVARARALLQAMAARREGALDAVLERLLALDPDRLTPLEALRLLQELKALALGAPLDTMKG

[2] = target: T1, MutS-IAANS (MutS-C42A/M88C); assay: stopped-flow IAANS fluorescence
[3] = target: T2, MutS-F39A-IAANS (Thermus aquaticus (printed as T. …, UniProt Q56215 1-811, F39A;C42A;M88C)); assay: IAANS fluorescence quenching, equilibrium and stopped-flow
T2 sequence: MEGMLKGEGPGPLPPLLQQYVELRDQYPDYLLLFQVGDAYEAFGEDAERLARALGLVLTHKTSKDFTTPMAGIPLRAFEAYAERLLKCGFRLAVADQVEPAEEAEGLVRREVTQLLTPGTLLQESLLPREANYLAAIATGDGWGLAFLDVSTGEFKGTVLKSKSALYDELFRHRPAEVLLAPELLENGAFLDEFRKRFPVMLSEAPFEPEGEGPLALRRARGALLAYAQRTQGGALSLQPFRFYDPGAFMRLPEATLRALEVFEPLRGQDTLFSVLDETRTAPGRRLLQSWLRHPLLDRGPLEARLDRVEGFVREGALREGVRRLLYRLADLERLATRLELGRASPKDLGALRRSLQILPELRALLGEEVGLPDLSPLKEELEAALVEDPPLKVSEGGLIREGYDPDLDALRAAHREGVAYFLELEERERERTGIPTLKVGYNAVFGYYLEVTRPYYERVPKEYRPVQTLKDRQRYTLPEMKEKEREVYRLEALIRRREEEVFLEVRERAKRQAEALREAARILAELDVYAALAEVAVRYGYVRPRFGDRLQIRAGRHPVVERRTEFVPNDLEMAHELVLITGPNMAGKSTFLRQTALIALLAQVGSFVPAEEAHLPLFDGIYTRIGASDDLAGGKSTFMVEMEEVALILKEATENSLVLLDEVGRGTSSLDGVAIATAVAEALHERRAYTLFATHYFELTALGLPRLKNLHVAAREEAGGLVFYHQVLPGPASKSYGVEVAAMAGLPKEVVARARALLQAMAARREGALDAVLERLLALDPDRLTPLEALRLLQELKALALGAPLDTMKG

[4] = target: T3, MutS-F39A (Thermus aquaticus (printed as T. …, UniProt Q56215 1-811, F39A)); assay: fluorescence anisotropy, equilibrium
T3 sequence: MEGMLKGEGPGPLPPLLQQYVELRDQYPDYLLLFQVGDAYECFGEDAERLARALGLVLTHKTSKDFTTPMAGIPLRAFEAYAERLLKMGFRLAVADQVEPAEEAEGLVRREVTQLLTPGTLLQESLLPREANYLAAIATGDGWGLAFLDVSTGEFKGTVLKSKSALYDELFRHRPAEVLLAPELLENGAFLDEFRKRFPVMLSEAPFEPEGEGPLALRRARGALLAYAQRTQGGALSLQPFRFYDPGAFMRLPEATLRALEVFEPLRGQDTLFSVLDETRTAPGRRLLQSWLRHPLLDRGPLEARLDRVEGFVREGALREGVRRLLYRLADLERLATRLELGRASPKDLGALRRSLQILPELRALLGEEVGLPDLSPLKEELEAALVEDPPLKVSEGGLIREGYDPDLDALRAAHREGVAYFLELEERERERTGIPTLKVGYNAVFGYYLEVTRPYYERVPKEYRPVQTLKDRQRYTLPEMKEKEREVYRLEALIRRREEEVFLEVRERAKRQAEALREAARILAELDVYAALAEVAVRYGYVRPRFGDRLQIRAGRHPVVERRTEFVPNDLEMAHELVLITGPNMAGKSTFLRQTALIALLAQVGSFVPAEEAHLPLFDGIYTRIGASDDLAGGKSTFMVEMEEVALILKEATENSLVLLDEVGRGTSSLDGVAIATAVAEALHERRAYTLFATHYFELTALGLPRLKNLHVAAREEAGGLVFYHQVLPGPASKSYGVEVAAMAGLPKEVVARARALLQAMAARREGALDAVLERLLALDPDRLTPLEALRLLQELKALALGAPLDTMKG

[5] = target: T4, MutS (wild type) (Thermus aquaticus (printed as T. …, UniProt Q56215 1-811)); assay: fluorescence anisotropy, equilibrium
T4 sequence: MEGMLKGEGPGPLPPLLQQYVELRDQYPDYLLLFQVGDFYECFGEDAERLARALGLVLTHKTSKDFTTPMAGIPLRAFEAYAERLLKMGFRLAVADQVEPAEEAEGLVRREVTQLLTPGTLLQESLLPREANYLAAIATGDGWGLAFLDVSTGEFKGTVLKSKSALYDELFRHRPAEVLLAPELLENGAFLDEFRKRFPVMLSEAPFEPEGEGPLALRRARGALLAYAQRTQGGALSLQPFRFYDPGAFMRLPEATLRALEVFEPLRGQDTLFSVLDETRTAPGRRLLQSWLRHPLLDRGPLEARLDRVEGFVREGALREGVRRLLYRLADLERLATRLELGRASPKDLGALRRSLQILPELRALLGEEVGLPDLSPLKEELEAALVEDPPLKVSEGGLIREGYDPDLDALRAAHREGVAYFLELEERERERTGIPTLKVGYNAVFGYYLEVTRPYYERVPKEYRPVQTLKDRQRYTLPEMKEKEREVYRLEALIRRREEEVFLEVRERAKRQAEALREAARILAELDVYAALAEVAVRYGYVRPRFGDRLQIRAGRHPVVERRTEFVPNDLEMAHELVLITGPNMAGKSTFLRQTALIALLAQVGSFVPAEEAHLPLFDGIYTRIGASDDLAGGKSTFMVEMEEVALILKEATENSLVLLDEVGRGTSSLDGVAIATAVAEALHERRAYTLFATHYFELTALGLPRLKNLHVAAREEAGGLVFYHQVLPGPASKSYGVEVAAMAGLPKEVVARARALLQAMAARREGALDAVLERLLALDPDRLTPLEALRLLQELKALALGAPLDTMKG

[6] = target: T4, MutS (wild type); assay: stopped-flow fluorescence anisotropy

B1: DNA(+T) (dsDNA)
DNA 1: ATGTGAATCAGTATGGTATATATCTGCTGAAGGAAAT
DNA 2: ATTTCCTTCAGCAGATATTACCATACTGATTCACAT
- Kd [1]: 0.022 ± 0.004 µM
- apparent K (half saturation) [2]: 2300 ± 700 nM
- binding result [3]: no binding

B2: DNA(+T)TAMRA (dsDNA)
DNA 1: ATGTGAATCAGTATGGTATATATCTGCTGAAGGAAAT
DNA 2: ATTTCCTTCAGCAGATATTACCATACTGATTCACAT
modifications: 3' amino linker
- binding result [4]: no binding
- Kd [5]: 0.013 ± 0.002 µM
- apparent K (half saturation) [6]: 5 ± 2 µM
